Reference: the supplement of paper PMC9112550, “Optimization of the antimicrobial peptide Bac7 by deep mutational scanning” (BMC Biology, 2022)

The sequences below were run on Escherichia coli TOP10 (assay: shrunken log2 fold change of peptide-encoding DNA abundance (4.5 h post-induction vs induction); higher = less antimicrobial activity (less host growth inhibition)). Conditions: time post-induction: 4.5 h; library: site-saturation at positions 5, 18, 19, 20.
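Note: peptides expressed intracellularly from a pBAD plasmid library in pooled LB shake-flask culture, induced with 0.3% L-arabinose, DNA abundance read by NGS, three biological replicates, DESeq2 with apeglm shrinkage.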

| Sequence | shrunken log2 fold change |
| --- | --- |
| RRIRRRPPRLPRPRPRPKMYPRP | -0.258 |
| RRIRVRPPRLPRPRPRPRIAPRP | 0.0659 |
| RRIRIRPPRLPRPRPRPQTLPRP | -0.129 |
| RRIRARPPRLPRPRPRPKFFPRP | 0.305 |
| RRIRYRPPRLPRPRPRPYLCPRP | -1.35 |
| RRIRFRPPRLPRPRPRPSQVPRP | -0.398 |
| RRIRWRPPRLPRPRPRPARPPRP | 0.566 |
| RRIRHRPPRLPRPRPRPCHAPRP | -0.0924 |
| RRIRYRPPRLPRPRPRPDEQPRP | -0.00172 |
| RRIRWRPPRLPRPRPRPITMPRP | -0.0679 |
| RRIRIRPPRLPRPRPRPCSCPRP | -0.446 |
| RRIRQRPPRLPRPRPRPFNKPRP | -0.0963 |
| RRIRERPPRLPRPRPRPTYKPRP | -0.579 |
| RRIRERPPRLPRPRPRPDQWPRP | 0.189 |
| RRIRRRPPRLPRPRPRPVQKPRP | 0.223 |
| RRIRARPPRLPRPRPRPMVQPRP | -0.081 |
| RRIRQRPPRLPRPRPRPGHQPRP | -0.00101 |
| RRIRYRPPRLPRPRPRPNHRPRP | -0.767 |
| RRIRARPPRLPRPRPRPCRKPRP | -0.232 |
| RRIRYRPPRLPRPRPRPHRIPRP | -0.474 |
| RRIRSRPPRLPRPRPRPRDWPRP | 0.4 |
| RRIRERPPRLPRPRPRPMHHPRP | -0.394 |
| RRIRTRPPRLPRPRPRPNTRPRP | -0.318 |
| RRIRYRPPRLPRPRPRPPHVPRP | -0.142 |
| RRIRYRPPRLPRPRPRPILKPRP | -1.06 |

| Sequence | shrunken log2 fold change |
| --- | --- |
| RRIRCRPPRLPRPRPRPTDFPRP | -0.759 |
| RRIRKRPPRLPRPRPRPFSMPRP | -0.489 |
| RRIRARPPRLPRPRPRPGGSPRP | 0.535 |
| RRIRWRPPRLPRPRPRPCHIPRP | -0.414 |
| RRIRPRPPRLPRPRPRPLWYPRP | -0.496 |
| RRIRIRPPRLPRPRPRPSNNPRP | -0.656 |
| RRIRLRPPRLPRPRPRPEFIPRP | 0.0915 |
| RRIRTRPPRLPRPRPRPDCVPRP | -0.128 |
| RRIRCRPPRLPRPRPRPCFPPRP | -0.321 |
| RRIRLRPPRLPRPRPRPNEPPRP | -0.213 |
| RRIRMRPPRLPRPRPRPNNFPRP | -0.169 |
| RRIRNRPPRLPRPRPRPNREPRP | 0.00564 |
| RRIRSRPPRLPRPRPRPEHKPRP | -0.156 |
| RRIRYRPPRLPRPRPRPFTVPRP | -0.177 |
| RRIRKRPPRLPRPRPRPYMDPRP | -0.763 |
| RRIRHRPPRLPRPRPRPFVQPRP | -0.14 |
| RRIRMRPPRLPRPRPRPMVNPRP | -0.254 |
| RRIRHRPPRLPRPRPRPETNPRP | 0.0688 |
| RRIRRRPPRLPRPRPRPHPGPRP | 0.316 |
| RRIRFRPPRLPRPRPRPFDYPRP | -0.111 |
| RRIRERPPRLPRPRPRPEFDPRP | 0.039 |
| RRIRIRPPRLPRPRPRPEAKPRP | 0.0733 |
| RRIRMRPPRLPRPRPRPMWLPRP | 0.208 |
| RRIRWRPPRLPRPRPRPEPFPRP | -0.0317 |
| RRIRARPPRLPRPRPRPHPKPRP | 0.508 |

| Sequence | shrunken log2 fold change |
| --- | --- |
| RRIRGRPPRLPRPRPRPRQRPRP | 0.815 |
| RRIRERPPRLPRPRPRPNAAPRP | 0.163 |
| RRIRDRPPRLPRPRPRPMHCPRP | -0.00112 |
| RRIRTRPPRLPRPRPRPCQIPRP | 0.0623 |
| RRIRARPPRLPRPRPRPYGPPRP | -0.264 |
| RRIRSRPPRLPRPRPRPENMPRP | -0.459 |
| RRIRQRPPRLPRPRPRPVPTPRP | 0.0766 |
| RRIRLRPPRLPRPRPRPSWQPRP | -0.0855 |
| RRIRVRPPRLPRPRPRPYNNPRP | -1.16 |
| RRIRPRPPRLPRPRPRPQRNPRP | 0.147 |
| RRIRRRPPRLPRPRPRPANVPRP | -0.15 |
| RRIRVRPPRLPRPRPRPESCPRP | 0.242 |
| RRIRTRPPRLPRPRPRPYMKPRP | -0.0199 |
| RRIRDRPPRLPRPRPRPNNKPRP | -0.682 |
| RRIRPRPPRLPRPRPRPRTGPRP | 1.03 |
| RRIRYRPPRLPRPRPRPRYMPRP | -0.33 |
| RRIRFRPPRLPRPRPRPTWEPRP | -0.0897 |
| RRIRQRPPRLPRPRPRPVTPPRP | -0.00477 |
| RRIRQRPPRLPRPRPRPCGYPRP | -0.0698 |
| RRIRARPPRLPRPRPRPKVNPRP | -0.109 |
| RRIRVRPPRLPRPRPRPTHTPRP | 0.0927 |
| RRIRTRPPRLPRPRPRPRFHPRP | 0.192 |
| RRIRKRPPRLPRPRPRPTEQPRP | 2.01 |
| RRIRMRPPRLPRPRPRPSIYPRP | -0.726 |
| RRIRERPPRLPRPRPRPPLEPRP | 0.161 |
